Results published in patent publication US20240209062A1 (INVETX, published 2024).

What follows are binders tested against T1, feline FcRn (soluble portion of large subunit p51 isoform X1 with C-terminal 6xHis-tag, co-expressed with … (feline, UniProt Q5MGS7 21-118)) (assay: SPR, Biacore T200, IgG captured on Protein L chip, feline FcRn flowed over, pH 5.9, 1:1 fit).
T1 construct: Heterodimer made by co-expression in CHO cells, purified on HisTrap FF; also called FcRn complex
Description: The feline FcRn binding experiments at pH 5.9 were completed on a BIACORE™ T200 instrument. A Series S Protein L Sensor chip (Cytiva, Cat. No. BR29205137) was used to capture the antibody variants via the kappa (κ) light chain. The feline variants were captured onto the protein L chip at a flow rate of 10 μL/min for 60 seconds. 1×PBX-P+(Cytiva Cat 28995084) was adjusted to pH 5.9 for the running buffer. The feline FcRn was flowed over the sensor chip at 30 μL/min for 120 seconds contact time and 600 seconds dissociation time. Regeneration of the flow cells was completed by flowing over 10 mM glycine, pH 1.7 at 30 μL/min for 30 seconds. The data were evaluated by the BIACORE™T200 Evaluation software v3.2.1 by fitting to a 1:1 kinetic interaction model.

T1 sequence (chain, as listed by the source limits assumed, chain 1 of 2): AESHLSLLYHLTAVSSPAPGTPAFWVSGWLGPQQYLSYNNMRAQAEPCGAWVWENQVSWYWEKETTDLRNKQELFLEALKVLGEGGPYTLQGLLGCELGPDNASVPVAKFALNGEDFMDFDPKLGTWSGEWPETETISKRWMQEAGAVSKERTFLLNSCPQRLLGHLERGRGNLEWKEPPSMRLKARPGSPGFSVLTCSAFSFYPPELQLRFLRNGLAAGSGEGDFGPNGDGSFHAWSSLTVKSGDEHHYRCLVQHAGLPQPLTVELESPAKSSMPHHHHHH
T1 sequence (Q5MGS7 other isoform, or with tags, fused parts or gaps limits assumed, chain 2 of 2): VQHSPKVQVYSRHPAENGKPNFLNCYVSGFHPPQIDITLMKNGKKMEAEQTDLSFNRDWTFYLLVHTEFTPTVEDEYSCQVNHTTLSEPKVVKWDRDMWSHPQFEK

Binder | Kd [nM] | koff [s⁻¹] | kon [M⁻¹ s⁻¹]
IgG with wild-type feline IgG1a Fc (antibody, Constant domain carries the MALA mutations (M234A, L244A as printed); variable domains from WO 2023/97275; also called Wild-type Fc; wild type feline Fc) heavy: DVQLVESGGDLVKPGGSLRLTCVASGLSLTSDSMSWVRQAPGKGLQWVSTLWSNRGTYYTDSVKGRFTISKDNAENTLYLQMNNLKTEDTATYYCASIYYYEADYLHWYFDFWGQGALVTVSSASTTAPSVFPLAPSCGTTSGATVALACLVLGYFPEPVTVSWNSGALTSGVHTFPAVLQASGLYSLSSMVTVPSSRWLSDTFTCNVAHPPSNTKVDKTVRKTDHPPGPKPCDCPKCPPPEAAGGPSIFIFPPKPKDTLSISRTPEVTCLVVDLGPDDSDVQITWFVDNTQVYTAKTSPREEQFNSTYRVVSVLPILHQDWLKGKEFKCKVNSKSLPSPIERTISKAKGQPHEPQVYVLPPAQEELSRNKVSVTCLIKSFHPPDIAVEWEITGQPEPENNYRTTPPQLDSDGTYFVYSKLSVDRSHWQRGNTYTCSVSHEALHSHHTQKSLTQSPG light: EIQMTQSPTSLSASVGDRVTITCRASEGIANNLSWYQQTPGKAPKLLIYATSNLHSGVPSRFSGSGSGTDFTLTISSLQPEDFATYYCQQGFKWPLTFGGGTKLEITRSDAQPSVFLFQPSLDELHTGSASIVCILNDFYPKEVNVKWKVDGVVQNKGIQESTTEQNSKDSTYSLSSTLTMSSTEYQSHEKFSCEVTHKSLASTLVKSFNRSECQRE | 417 | 0.273 | 709000
IgG with feline IgG1a Fc variant S252M (antibody, IgG1a constant domain with MALA mutations (M234A, L244A as printed); variable domains from WO 2023/97275) heavy: DVQLVESGGDLVKPGGSLRLTCVASGLSLTSDSMSWVRQAPGKGLQWVSTLWSNRGTYYTDSVKGRFTISKDNAENTLYLQMNNLKTEDTATYYCASIYYYEADYLHWYFDFWGQGALVTVSSASTTAPSVFPLAPSCGTTSGATVALACLVLGYFPEPVTVSWNSGALTSGVHTFPAVLQASGLYSLSSMVTVPSSRWLSDTFTCNVAHPPSNTKVDKTVRKTDHPPGPKPCDCPKCPPPEAAGGPSIFIFPPKPKDTLMISRTPEVTCLVVDLGPDDSDVQITWFVDNTQVYTAKTSPREEQFNSTYRVVSVLPILHQDWLKGKEFKCKVNSKSLPSPIERTISKAKGQPHEPQVYVLPPAQEELSRNKVSVTCLIKSFHPPDIAVEWEITGQPEPENNYRTTPPQLDSDGTYFVYSKLSVDRSHWQRGNTYTCSVSHEALHSHHTQKSLTQSPG light: EIQMTQSPTSLSASVGDRVTITCRASEGIANNLSWYQQTPGKAPKLLIYATSNLHSGVPSRFSGSGSGTDFTLTISSLQPEDFATYYCQQGFKWPLTFGGGTKLEITRSDAQPSVFLFQPSLDELHTGSASIVCILNDFYPKEVNVKWKVDGVVQNKGIQESTTEQNSKDSTYSLSSTLTMSSTEYQSHEKFSCEVTHKSLASTLVKSFNRSECQRE | 279 | 0.192 | 690000
IgG with feline IgG1a Fc variant S252M, I377Y (antibody, Printed '1377Y' read as I377Y; IgG1a constant domain with MALA mutations (M234A, L244A as printed); variable domains from WO 2023/97275; also called S252M, 1377Y) heavy: DVQLVESGGDLVKPGGSLRLTCVASGLSLTSDSMSWVRQAPGKGLQWVSTLWSNRGTYYTDSVKGRFTISKDNAENTLYLQMNNLKTEDTATYYCASIYYYEADYLHWYFDFWGQGALVTVSSASTTAPSVFPLAPSCGTTSGATVALACLVLGYFPEPVTVSWNSGALTSGVHTFPAVLQASGLYSLSSMVTVPSSRWLSDTFTCNVAHPPSNTKVDKTVRKTDHPPGPKPCDCPKCPPPEAAGGPSIFIFPPKPKDTLMISRTPEVTCLVVDLGPDDSDVQITWFVDNTQVYTAKTSPREEQFNSTYRVVSVLPILHQDWLKGKEFKCKVNSKSLPSPIERTISKAKGQPHEPQVYVLPPAQEELSRNKVSVTCLIKSFHPPDYAVEWEITGQPEPENNYRTTPPQLDSDGTYFVYSKLSVDRSHWQRGNTYTCSVSHEALHSHHTQKSLTQSPG light: EIQMTQSPTSLSASVGDRVTITCRASEGIANNLSWYQQTPGKAPKLLIYATSNLHSGVPSRFSGSGSGTDFTLTISSLQPEDFATYYCQQGFKWPLTFGGGTKLEITRSDAQPSVFLFQPSLDELHTGSASIVCILNDFYPKEVNVKWKVDGVVQNKGIQESTTEQNSKDSTYSLSSTLTMSSTEYQSHEKFSCEVTHKSLASTLVKSFNRSECQRE | 202 | 0.175 | 862000
IgG with feline IgG1a Fc variant S252M, I377L (antibody, Printed '1377L' read as I377L; IgG1a constant domain with MALA mutations (M234A, L244A as printed); variable domains from WO 2023/97275; also called S252M, 1377L) heavy: DVQLVESGGDLVKPGGSLRLTCVASGLSLTSDSMSWVRQAPGKGLQWVSTLWSNRGTYYTDSVKGRFTISKDNAENTLYLQMNNLKTEDTATYYCASIYYYEADYLHWYFDFWGQGALVTVSSASTTAPSVFPLAPSCGTTSGATVALACLVLGYFPEPVTVSWNSGALTSGVHTFPAVLQASGLYSLSSMVTVPSSRWLSDTFTCNVAHPPSNTKVDKTVRKTDHPPGPKPCDCPKCPPPEAAGGPSIFIFPPKPKDTLMISRTPEVTCLVVDLGPDDSDVQITWFVDNTQVYTAKTSPREEQFNSTYRVVSVLPILHQDWLKGKEFKCKVNSKSLPSPIERTISKAKGQPHEPQVYVLPPAQEELSRNKVSVTCLIKSFHPPDLAVEWEITGQPEPENNYRTTPPQLDSDGTYFVYSKLSVDRSHWQRGNTYTCSVSHEALHSHHTQKSLTQSPG light: EIQMTQSPTSLSASVGDRVTITCRASEGIANNLSWYQQTPGKAPKLLIYATSNLHSGVPSRFSGSGSGTDFTLTISSLQPEDFATYYCQQGFKWPLTFGGGTKLEITRSDAQPSVFLFQPSLDELHTGSASIVCILNDFYPKEVNVKWKVDGVVQNKGIQESTTEQNSKDSTYSLSSTLTMSSTEYQSHEKFSCEVTHKSLASTLVKSFNRSECQRE | 216 | 0.187 | 869000
IgG with feline IgG1a Fc variant S252M, L309D (antibody, IgG1a constant domain with MALA mutations (M234A, L244A as printed); variable domains from WO 2023/97275) heavy: DVQLVESGGDLVKPGGSLRLTCVASGLSLTSDSMSWVRQAPGKGLQWVSTLWSNRGTYYTDSVKGRFTISKDNAENTLYLQMNNLKTEDTATYYCASIYYYEADYLHWYFDFWGQGALVTVSSASTTAPSVFPLAPSCGTTSGATVALACLVLGYFPEPVTVSWNSGALTSGVHTFPAVLQASGLYSLSSMVTVPSSRWLSDTFTCNVAHPPSNTKVDKTVRKTDHPPGPKPCDCPKCPPPEAAGGPSIFIFPPKPKDTLMISRTPEVTCLVVDLGPDDSDVQITWFVDNTQVYTAKTSPREEQFNSTYRVVSVLPIDHQDWLKGKEFKCKVNSKSLPSPIERTISKAKGQPHEPQVYVLPPAQEELSRNKVSVTCLIKSFHPPDIAVEWEITGQPEPENNYRTTPPQLDSDGTYFVYSKLSVDRSHWQRGNTYTCSVSHEALHSHHTQKSLTQSPG light: EIQMTQSPTSLSASVGDRVTITCRASEGIANNLSWYQQTPGKAPKLLIYATSNLHSGVPSRFSGSGSGTDFTLTISSLQPEDFATYYCQQGFKWPLTFGGGTKLEITRSDAQPSVFLFQPSLDELHTGSASIVCILNDFYPKEVNVKWKVDGVVQNKGIQESTTEQNSKDSTYSLSSTLTMSSTEYQSHEKFSCEVTHKSLASTLVKSFNRSECQRE | 352 | 0.203 | 581000

Results, then the binder that gave them:

Kd [nM] | koff [s⁻¹] | kon [M⁻¹ s⁻¹] | Binder
152 | 0.121 | 865000 | IgG with feline IgG1a Fc variant S252M, Q311V (antibody, IgG1a constant domain with MALA mutations (M234A, L244A as printed); variable domains from WO 2023/97275) heavy: DVQLVESGGDLVKPGGSLRLTCVASGLSLTSDSMSWVRQAPGKGLQWVSTLWSNRGTYYTDSVKGRFTISKDNAENTLYLQMNNLKTEDTATYYCASIYYYEADYLHWYFDFWGQGALVTVSSASTTAPSVFPLAPSCGTTSGATVALACLVLGYFPEPVTVSWNSGALTSGVHTFPAVLQASGLYSLSSMVTVPSSRWLSDTFTCNVAHPPSNTKVDKTVRKTDHPPGPKPCDCPKCPPPEAAGGPSIFIFPPKPKDTLMISRTPEVTCLVVDLGPDDSDVQITWFVDNTQVYTAKTSPREEQFNSTYRVVSVLPILHVDWLKGKEFKCKVNSKSLPSPIERTISKAKGQPHEPQVYVLPPAQEELSRNKVSVTCLIKSFHPPDIAVEWEITGQPEPENNYRTTPPQLDSDGTYFVYSKLSVDRSHWQRGNTYTCSVSHEALHSHHTQKSLTQSPG light: EIQMTQSPTSLSASVGDRVTITCRASEGIANNLSWYQQTPGKAPKLLIYATSNLHSGVPSRFSGSGSGTDFTLTISSLQPEDFATYYCQQGFKWPLTFGGGTKLEITRSDAQPSVFLFQPSLDELHTGSASIVCILNDFYPKEVNVKWKVDGVVQNKGIQESTTEQNSKDSTYSLSSTLTMSSTEYQSHEKFSCEVTHKSLASTLVKSFNRSECQRE
129 | 0.124 | 958000 | IgG with feline IgG1a Fc variant S252M, L309V (antibody, IgG1a constant domain with MALA mutations (M234A, L244A as printed); variable domains from WO 2023/97275) heavy: DVQLVESGGDLVKPGGSLRLTCVASGLSLTSDSMSWVRQAPGKGLQWVSTLWSNRGTYYTDSVKGRFTISKDNAENTLYLQMNNLKTEDTATYYCASIYYYEADYLHWYFDFWGQGALVTVSSASTTAPSVFPLAPSCGTTSGATVALACLVLGYFPEPVTVSWNSGALTSGVHTFPAVLQASGLYSLSSMVTVPSSRWLSDTFTCNVAHPPSNTKVDKTVRKTDHPPGPKPCDCPKCPPPEAAGGPSIFIFPPKPKDTLMISRTPEVTCLVVDLGPDDSDVQITWFVDNTQVYTAKTSPREEQFNSTYRVVSVLPIVHQDWLKGKEFKCKVNSKSLPSPIERTISKAKGQPHEPQVYVLPPAQEELSRNKVSVTCLIKSFHPPDIAVEWEITGQPEPENNYRTTPPQLDSDGTYFVYSKLSVDRSHWQRGNTYTCSVSHEALHSHHTQKSLTQSPG light: EIQMTQSPTSLSASVGDRVTITCRASEGIANNLSWYQQTPGKAPKLLIYATSNLHSGVPSRFSGSGSGTDFTLTISSLQPEDFATYYCQQGFKWPLTFGGGTKLEITRSDAQPSVFLFQPSLDELHTGSASIVCILNDFYPKEVNVKWKVDGVVQNKGIQESTTEQNSKDSTYSLSSTLTMSSTEYQSHEKFSCEVTHKSLASTLVKSFNRSECQRE
280 | 0.332 | 1.2e+06 | IgG with feline IgG1a Fc variant S252M, R301L (antibody, IgG1a constant domain with MALA mutations (M234A, L244A as printed); variable domains from WO 2023/97275) heavy: DVQLVESGGDLVKPGGSLRLTCVASGLSLTSDSMSWVRQAPGKGLQWVSTLWSNRGTYYTDSVKGRFTISKDNAENTLYLQMNNLKTEDTATYYCASIYYYEADYLHWYFDFWGQGALVTVSSASTTAPSVFPLAPSCGTTSGATVALACLVLGYFPEPVTVSWNSGALTSGVHTFPAVLQASGLYSLSSMVTVPSSRWLSDTFTCNVAHPPSNTKVDKTVRKTDHPPGPKPCDCPKCPPPEAAGGPSIFIFPPKPKDTLMISRTPEVTCLVVDLGPDDSDVQITWFVDNTQVYTAKTSPREEQFNSTYLVVSVLPILHQDWLKGKEFKCKVNSKSLPSPIERTISKAKGQPHEPQVYVLPPAQEELSRNKVSVTCLIKSFHPPDIAVEWEITGQPEPENNYRTTPPQLDSDGTYFVYSKLSVDRSHWQRGNTYTCSVSHEALHSHHTQKSLTQSPG light: EIQMTQSPTSLSASVGDRVTITCRASEGIANNLSWYQQTPGKAPKLLIYATSNLHSGVPSRFSGSGSGTDFTLTISSLQPEDFATYYCQQGFKWPLTFGGGTKLEITRSDAQPSVFLFQPSLDELHTGSASIVCILNDFYPKEVNVKWKVDGVVQNKGIQESTTEQNSKDSTYSLSSTLTMSSTEYQSHEKFSCEVTHKSLASTLVKSFNRSECQRE
